Common to all, as to assay: SPR (Biacore), antibody captured on chip, soluble FcgR as analyte; experiment 1
On the technique in general: In SPR one partner is held on a chip, and binding of the other changes the refractive index at the surface.

Experiment [1] has as its target T1, FcγRIa extracellular domain with C-terminal His tag (human, UniProt P12314 16-292).
T1 construct: extracellular domain; also called FcgRI; FcgRIa; not shown: His tag at the C terminus
On the procedure: (§1) Antibodies of interest were analyzed for the interaction to FcgR according to the method described in Reference Example 8.
(§2) Analysis of interaction between obj ective antibody and the FcγR was carried out using Biacore T100 (GE Healthcare), Biacore T200, Biacore A100, and Biacore 4000. HBS-EP+ (GE Healthcare) was used as the running buffer, and the measurement temperature was set to 25° C. Chips produced by immobilizing the antigen peptide by the amine coupling method to a Series S sensor Chip CM5 (GE Healthcare), chips produced by allowing preliminarily biotinylated antigen peptides to interact with and immobilize onto a Series S Sensor Chip SA (certified) (GE Healthcare), chips produced by immobilizing Protein L (ACTIGEN, BioVision) to Series S Sencor Chip CM5 (GE Healthcare), or chips produced by immobilizing Protein A/G (Thermo Scientific) to Series S Sencor Chip CM5 (GE Healthcare) were used. Antibodies of interest were captured onto these chips, and allowed to interact to each FcγR diluted with running buffer. To regenerate and repeatedly use the chip, the antibodies captured onto the chip were washed off by reacting 10 mM glycine-HCl, pH 1.5.

Experiment [2] concerns the target T2, FcγRIIa R type extracellular domain with C-terminal His tag (human, UniProt P12318 34-217).
T2 construct: extracellular domain; also called FcgRIIa R; FcgRIIaR; not shown: His tag at the C terminus
T2 sequence (looked up): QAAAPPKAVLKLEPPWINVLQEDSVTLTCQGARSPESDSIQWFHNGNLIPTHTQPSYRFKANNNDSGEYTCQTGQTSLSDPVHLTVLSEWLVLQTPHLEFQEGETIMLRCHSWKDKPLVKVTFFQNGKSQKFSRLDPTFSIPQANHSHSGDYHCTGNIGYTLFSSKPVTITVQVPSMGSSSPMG
On the procedure: as §1, §2

Experiment [3] concerns the target T3, FcγRIIa H type extracellular domain with C-terminal His tag (human, UniProt P12318 34-217).
T3 construct: extracellular domain; also called FcgRIIa H; FcgRIIaH; not shown: His tag at the C terminus
T3 sequence (looked up): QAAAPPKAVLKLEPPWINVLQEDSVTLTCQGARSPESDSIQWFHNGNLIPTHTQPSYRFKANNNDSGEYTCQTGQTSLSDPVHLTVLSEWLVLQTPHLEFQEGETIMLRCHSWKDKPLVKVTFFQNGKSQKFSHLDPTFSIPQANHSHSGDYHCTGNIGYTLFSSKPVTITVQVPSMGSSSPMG
On the procedure: as §1, §2

The target of experiment [4] is T4, FcγRIIb extracellular domain with C-terminal His tag (human, UniProt P31994 43-217).
T4 construct: extracellular domain; also called FcgRIIb; 2b; not shown: His tag at the C terminus
T4 sequence (looked up): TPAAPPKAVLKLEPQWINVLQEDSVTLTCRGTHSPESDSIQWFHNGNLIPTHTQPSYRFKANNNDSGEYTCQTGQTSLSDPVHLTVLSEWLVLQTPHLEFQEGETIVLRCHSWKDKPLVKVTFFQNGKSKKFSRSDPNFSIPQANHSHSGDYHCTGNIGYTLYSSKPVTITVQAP
As to the method: as §1, §2

Experiment [5] concerns the target T5, FcγRIIIa F type extracellular domain with C-terminal His tag (human, UniProt P08637 17-208).
T5 construct: extracellular domain; also called FcgRIIIa F; FcgRIIIaF; not shown: His tag at the C terminus
As to the method: as §1, §2

The target of experiment [6] is T6, FcγRIIIa V type extracellular domain with C-terminal His tag (human, UniProt P08637 17-208).
T6 construct: extracellular domain; also called FcgRIIIa V; FcgRIIIaV; not shown: His tag at the C terminus
On the procedure:
as §1, §2

T1 sequence (P12314 16-292): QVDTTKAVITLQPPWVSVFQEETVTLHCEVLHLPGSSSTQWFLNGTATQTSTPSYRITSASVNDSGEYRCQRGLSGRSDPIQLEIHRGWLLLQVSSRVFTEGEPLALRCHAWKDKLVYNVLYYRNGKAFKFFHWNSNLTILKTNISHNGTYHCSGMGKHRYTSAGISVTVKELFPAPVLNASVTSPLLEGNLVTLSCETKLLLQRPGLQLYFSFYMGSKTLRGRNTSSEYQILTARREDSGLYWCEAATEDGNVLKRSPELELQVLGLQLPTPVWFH
T6 sequence (P08637 17-208 F176V): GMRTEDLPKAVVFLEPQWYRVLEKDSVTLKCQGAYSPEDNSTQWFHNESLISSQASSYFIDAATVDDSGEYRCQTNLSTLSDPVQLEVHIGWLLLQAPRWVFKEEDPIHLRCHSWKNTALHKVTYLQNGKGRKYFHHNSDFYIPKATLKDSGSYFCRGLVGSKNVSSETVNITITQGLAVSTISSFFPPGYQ
T5 sequence (P08637 17-208): as the sequence (P08637 17-208 F176V) above, with V160F counted along it

B1: H240-FA024/H240-FB082/L73-k0 (antibody, human IgG1, kappa)
heavy 1: QDQLVQSGAEVKKPGASVKVSCKASGFNIKDTYIQWVRQAPGQGLEWMGRIDPLRKQTKYREKFEGRVTITADTSTNTAYMELSSLRSEDTAVYYCVRSGREFDYWGQGTLVTVSSASTKGPSVFPLAPSSKSTSGGTAALGCLVKDYFPEPVTVSWNSGALTSGVHTFPAVLQSSGLYSLSSVVTVPSSSLGTKTYTCNVNHKPSNTKVDKKVEPKSCDKTHTCPPCPAPEYYWGPSVFLFPPKPKDTLMISRTPEVTCVVVDVSDEEPKVKFNWYVDGVEVHNAKTKPREEQYNATYRVVSVLTVLHQDWLNGKEYKCKVSNKALPAPIEKTISKAKGQPREPQVYTLPPSRKEKTKNQVSLTCLVKGFYPSDIAVEWESNGQPENNYKTTPPVLDSDGSFFLYSKLTVDKSRWQQGNVFSCSVMHEALHNRYTQKSLSLSP
heavy 2: QDQLVQSGAEVKKPGASVKVSCKASGFNIKDTYIQWVRQAPGQGLEWMGRIDPLRKQTKYREKFEGRVTITADTSTNTAYMELSSLRSEDTAVYYCVRSGREFDYWGQGTLVTVSSASTKGPSVFPLAPSSKSTSGETAALGCLVEDYFPEPVTVSWNSGALTSGVHTFPAVLQSSGLYSLSSVVTVPSSSLGTQTYICNVNHKPSNTKVDKKVEPKSCDKTHTCPPCPAPELLGGPSVFLFPPKPKDTLMISRTPEVTCVVVDVSHEEPEVQFNWYVDGVEVHNAETKPREEQYNSTYRVVSVLTVLHQDWLNGKEYKCKVSNDALPMPIEETISKAKGQPREPQVYTLPPSREEMTKNQVSLTCLVKGFYPSDIAVEWESEGQPENNYKTTPPVLDSDGSFFLYSKLTVDKSRWQQGNVFSCSVMHEALHNHYTQESLSLSP
light: DIQMTQSPSSLSASVGDRVTITCRASQDIHKYIAWYQQKPGQAPRLLIQYTSTLQPGVPSRFSGSGSGTDYTFTISSLQPEDIATYYCLQYEQLRTFGGGTKVEIKRTVAAPSVFIFPPSDEQLKSGTASVVCLLNNFYPREAKVQWKVDNALQSGNSQESVTEQDSKDSTYSLSSTLTLSKADYEKHKVYACEVTHQGLSSPVTKSFNRGEC
notes: Heterodimerized anti-EREG IgG1 antibody; A chain altered from H240-AK072, B chain altered from H240-BH076
For B1, the Kd (commonly a measure of binding affinity in units of concentration) worked out at 0.13 nM in experiment [1]; 240 nM in experiment [2]; 80 nM in experiment [3]; 1500 nM in experiment [4]; 4.6 nM in experiment [5]; 1.3 nM in experiment [6].

B2: H240-FA030/H240-FB064/L73-k0 (antibody, human IgG1, kappa)
heavy 1: QDQLVQSGAEVKKPGASVKVSCKASGFNIKDTYIQWVRQAPGQGLEWMGRIDPLRKQTKYREKFEGRVTITADTSTNTAYMELSSLRSEDTAVYYCVRSGREFDYWGQGTLVTVSSASTKGPSVFPLAPSSKSTSGGTAALGCLVKDYFPEPVTVSWNSGALTSGVHTFPAVLQSSGLYSLSSVVTVPSSSLGTKTYTCNVNHKPSNTKVDKKVEPKSCDKTHTCPPCPAPEYYWGPSVFLFPPKPKDTLMISRTPEVTCVVVDVSDEEPKVKFNWYVDGVEVHNAKTKPREEQYNATYRVVSVLTVLHQDWLNGKEYKCKVSNKALPAPIEKTISKAKGQPREPQVYTLPPSRKEMTKNQVSLTCLVKGFYPSDIAVEWESNGQPENNYKTTPPVLDSDGSFFLYSKLTVDKSRWQQGNVFSCSVMHEALHNRYTQKSLSLSP
heavy 2: QDQLVQSGAEVKKPGASVKVSCKASGFNIKDTYIQWVRQAPGQGLEWMGRIDPLRKQTKYREKFEGRVTITADTSTNTAYMELSSLRSEDTAVYYCVRSGREFDYWGQGTLVTVSSASTKGPSVFPLAPSSKSTSESTAALGCLVKDYFPEPVTVSWNSGALTSGVHTFPAVLQSSGLYSLSSVVTVPSSNFGTQTYTCNVDHKPSNTKVDKTVEPKSCDKTHTCPPCPAPELLGGPSVFLFPPKPKDTLMISRTPEVTCVVVDVSHEEPEVQFNWYVDGVEVHNAKTKPREEQYNSTYRVVSVLTVLHQDWLNGKEYKCKVSNDALPMPIEETISKAKGQPREPQVYTLPPSREEMTKNQVSLTCLVKGFYPSDIAVEWESNGQPENNYKTTPPVLDSDGSFFLYSKLTVDKSRWQQGNVFSCSVMHEALHNHYTQESLSLSP
light: DIQMTQSPSSLSASVGDRVTITCRASQDIHKYIAWYQQKPGQAPRLLIQYTSTLQPGVPSRFSGSGSGTDYTFTISSLQPEDIATYYCLQYEQLRTFGGGTKVEIKRTVAAPSVFIFPPSDEQLKSGTASVVCLLNNFYPREAKVQWKVDNALQSGNSQESVTEQDSKDSTYSLSSTLTLSKADYEKHKVYACEVTHQGLSSPVTKSFNRGEC
notes: as for B1
Consider B2, for which the Kd in experiment [1] is 0.057 nM; in experiment [2], 290 nM; in experiment [3], 96 nM; in experiment [4] it was 1800 nM; in experiment [5], 5.3 nM; in experiment [6] it was 1.5 nM.

B3: H240-FA030/H240-FB065/L73-k0 (antibody, human IgG1, kappa)
heavy 1: QDQLVQSGAEVKKPGASVKVSCKASGFNIKDTYIQWVRQAPGQGLEWMGRIDPLRKQTKYREKFEGRVTITADTSTNTAYMELSSLRSEDTAVYYCVRSGREFDYWGQGTLVTVSSASTKGPSVFPLAPSSKSTSGGTAALGCLVKDYFPEPVTVSWNSGALTSGVHTFPAVLQSSGLYSLSSVVTVPSSSLGTKTYTCNVNHKPSNTKVDKKVEPKSCDKTHTCPPCPAPEYYWGPSVFLFPPKPKDTLMISRTPEVTCVVVDVSDEEPKVKFNWYVDGVEVHNAKTKPREEQYNATYRVVSVLTVLHQDWLNGKEYKCKVSNKALPAPIEKTISKAKGQPREPQVYTLPPSRKEMTKNQVSLTCLVKGFYPSDIAVEWESNGQPENNYKTTPPVLDSDGSFFLYSKLTVDKSRWQQGNVFSCSVMHEALHNRYTQKSLSLSP
heavy 2: QDQLVQSGAEVKKPGASVKVSCKASGFNIKDTYIQWVRQAPGQGLEWMGRIDPLRKQTKYREKFEGRVTITADTSTNTAYMELSSLRSEDTAVYYCVRSGREFDYWGQGTLVTVSSASTKGPSVFPLAPSSKSTSESTAALGCLVKDYFPEPVTVSWNSGALTSGVHTFPAVLQSSGLYSLSSVVTVPSSNFGTQTYTCNVDHKPSNTKVDKTVEPKSCDKTHTCPPCPAPELLGGPSVFLFPPKPKDTLMISRTPEVTCVVVDVSHEEPEVQFNWYVDGVEVHNAETKPREEQYNSTYRVVSVLTVLHQDWLNGKEYKCKVSNDALPMPIEETISKAKGQPREPQVYTLPPSREEMTKNQVSLTCLVKGFYPSDIAVEWESNGQPENNYKTTPPVLDSDGSFFLYSKLTVDKSRWQQGNVFSCSVMHEALHNHYTQESLSLSP
light: DIQMTQSPSSLSASVGDRVTITCRASQDIHKYIAWYQQKPGQAPRLLIQYTSTLQPGVPSRFSGSGSGTDYTFTISSLQPEDIATYYCLQYEQLRTFGGGTKVEIKRTVAAPSVFIFPPSDEQLKSGTASVVCLLNNFYPREAKVQWKVDNALQSGNSQESVTEQDSKDSTYSLSSTLTLSKADYEKHKVYACEVTHQGLSSPVTKSFNRGEC
notes: as for B1
On to B3, for which the dissociation constant (Kd) in experiment [1] was found to be 0.1 nM; in experiment [2], 340 nM; in experiment [3], 99 nM; in experiment [4], 2400 nM; in experiment [5] it was 4.6 nM; in experiment [6] it was 1.1 nM.

The record behind these values is patent US20180155451A1 (published 2018).
